# Laboratory results from US20200131230A1 (published 2020).
# Positions of bridges follow the written chain, without caps; N, C: chain ends. Non-standard residues stand in square brackets, D forms with d. 2Nal = N[C@@H](Cc1ccc2ccccc2c1)C(=O)O; Phg = N[C@H](C(=O)O)c1ccccc1; Tle = CC(C)(C)[C@H](N)C(=O)O; hCys = N[C@@H](CCS)C(=O)O; Nle = CCCC[C@H](N)C(=O)O
# B1: Compound 28 (peptide)
# peptide: {CH2CO}-[2Nal]ISGRN[2Nal]VKWVC-NH2
# modifications: thioether N-12
# SMILES: CC[C@H](C)[C@@H]1NC(=O)[C@H](Cc2ccc3ccccc3c2)NC(=O)CSC[C@@H](C(N)=O)NC(=O)[C@H](C(C)C)NC(=O)[C@H](Cc2c[nH]c3ccccc23)NC(=O)[C@H](CCCCN)NC(=O)[C@H](C(C)C)NC(=O)[C@H](Cc2ccc3ccccc3c2)NC(=O)[C@H](CC(N)=O)NC(=O)[C@H](CCCNC(=N)N)NC(=O)CNC(=O)[C@H](CO)NC1=O
# B2: Compound 24 (peptide)
# peptide: {CH2CO}-[2Nal]ISGRNWVKWVC-NH2
# modifications: thioether N-12
# SMILES: CC[C@H](C)[C@@H]1NC(=O)[C@H](Cc2ccc3ccccc3c2)NC(=O)CSC[C@@H](C(N)=O)NC(=O)[C@H](C(C)C)NC(=O)[C@H](Cc2c[nH]c3ccccc23)NC(=O)[C@H](CCCCN)NC(=O)[C@H](C(C)C)NC(=O)[C@H](Cc2c[nH]c3ccccc23)NC(=O)[C@H](CC(N)=O)NC(=O)[C@H](CCCNC(=N)N)NC(=O)CNC(=O)[C@H](CO)NC1=O
# B3: Compound 42 (peptide)
# peptide: {CH2CO}-[2Nal]ISGHNWVKWVC-NH2
# modifications: thioether N-12
# SMILES: CC[C@H](C)[C@@H]1NC(=O)[C@H](Cc2ccc3ccccc3c2)NC(=O)CSC[C@@H](C(N)=O)NC(=O)[C@H](C(C)C)NC(=O)[C@H](Cc2c[nH]c3ccccc23)NC(=O)[C@H](CCCCN)NC(=O)[C@H](C(C)C)NC(=O)[C@H](Cc2c[nH]c3ccccc23)NC(=O)[C@H](CC(N)=O)NC(=O)[C@H](Cc2c[nH]cn2)NC(=O)CNC(=O)[C@H](CO)NC1=O
# B4: Compound 43 (peptide)
# peptide: {CH2CO}-[2Nal]ISGKNWVKWVC-NH2
# modifications: thioether N-12
# SMILES: CC[C@H](C)[C@@H]1NC(=O)[C@H](Cc2ccc3ccccc3c2)NC(=O)CSC[C@@H](C(N)=O)NC(=O)[C@H](C(C)C)NC(=O)[C@H](Cc2c[nH]c3ccccc23)NC(=O)[C@H](CCCCN)NC(=O)[C@H](C(C)C)NC(=O)[C@H](Cc2c[nH]c3ccccc23)NC(=O)[C@H](CC(N)=O)NC(=O)[C@H](CCCCN)NC(=O)CNC(=O)[C@H](CO)NC1=O
# B5: Compound 44 (peptide)
# peptide: {CH2CO}-[2Nal]ISGSNWVKWVC-NH2
# modifications: thioether N-12
# SMILES: CC[C@H](C)[C@@H]1NC(=O)[C@H](Cc2ccc3ccccc3c2)NC(=O)CSC[C@@H](C(N)=O)NC(=O)[C@H](C(C)C)NC(=O)[C@H](Cc2c[nH]c3ccccc23)NC(=O)[C@H](CCCCN)NC(=O)[C@H](C(C)C)NC(=O)[C@H](Cc2c[nH]c3ccccc23)NC(=O)[C@H](CC(N)=O)NC(=O)[C@H](CO)NC(=O)CNC(=O)[C@H](CO)NC1=O
# B6: Compound 41 (peptide)
# peptide: {CH2CO}-[2Nal]ISGRNWVHWVC-NH2
# modifications: thioether N-12
# SMILES: CC[C@H](C)[C@@H]1NC(=O)[C@H](Cc2ccc3ccccc3c2)NC(=O)CSC[C@@H](C(N)=O)NC(=O)[C@H](C(C)C)NC(=O)[C@H](Cc2c[nH]c3ccccc23)NC(=O)[C@H](Cc2c[nH]cn2)NC(=O)[C@H](C(C)C)NC(=O)[C@H](Cc2c[nH]c3ccccc23)NC(=O)[C@H](CC(N)=O)NC(=O)[C@H](CCCNC(=N)N)NC(=O)CNC(=O)[C@H](CO)NC1=O
# B7: Compound 12 (peptide)
# peptide: {CH2CO}-FITGRNWVKWVC-NH2
# modifications: thioether N-12
# SMILES: CC[C@H](C)[C@@H]1NC(=O)[C@H](Cc2ccccc2)NC(=O)CSC[C@@H](C(N)=O)NC(=O)[C@H](C(C)C)NC(=O)[C@H](Cc2c[nH]c3ccccc23)NC(=O)[C@H](CCCCN)NC(=O)[C@H](C(C)C)NC(=O)[C@H](Cc2c[nH]c3ccccc23)NC(=O)[C@H](CC(N)=O)NC(=O)[C@H](CCCNC(=N)N)NC(=O)CNC(=O)[C@H]([C@@H](C)O)NC1=O
# B8: Compound 13 (peptide)
# peptide: {CH2CO}-FISGRTWVKWVC-NH2
# modifications: thioether N-12
# SMILES: CC[C@H](C)[C@@H]1NC(=O)[C@H](Cc2ccccc2)NC(=O)CSC[C@@H](C(N)=O)NC(=O)[C@H](C(C)C)NC(=O)[C@H](Cc2c[nH]c3ccccc23)NC(=O)[C@H](CCCCN)NC(=O)[C@H](C(C)C)NC(=O)[C@H](Cc2c[nH]c3ccccc23)NC(=O)[C@H]([C@@H](C)O)NC(=O)[C@H](CCCNC(=N)N)NC(=O)CNC(=O)[C@H](CO)NC1=O
# B9: Compound 52 (peptide)
# peptide: {CH2CO}-[2Nal]ISGRNWVKW[Phg]C-NH2
# modifications: thioether N-12
# SMILES: CC[C@H](C)[C@@H]1NC(=O)[C@H](Cc2ccc3ccccc3c2)NC(=O)CSC[C@@H](C(N)=O)NC(=O)[C@H](c2ccccc2)NC(=O)[C@H](Cc2c[nH]c3ccccc23)NC(=O)[C@H](CCCCN)NC(=O)[C@H](C(C)C)NC(=O)[C@H](Cc2c[nH]c3ccccc23)NC(=O)[C@H](CC(N)=O)NC(=O)[C@H](CCCNC(=N)N)NC(=O)CNC(=O)[C@H](CO)NC1=O
# B10: Compound 54 (peptide)
# peptide: {CH2CO}-[2Nal]ISGRNWVKWV[hCys]-NH2
# modifications: thioether N-12
# SMILES: CC[C@H](C)[C@@H]1NC(=O)[C@H](Cc2ccc3ccccc3c2)NC(=O)CSCC[C@@H](C(N)=O)NC(=O)[C@H](C(C)C)NC(=O)[C@H](Cc2c[nH]c3ccccc23)NC(=O)[C@H](CCCCN)NC(=O)[C@H](C(C)C)NC(=O)[C@H](Cc2c[nH]c3ccccc23)NC(=O)[C@H](CC(N)=O)NC(=O)[C@H](CCCNC(=N)N)NC(=O)CNC(=O)[C@H](CO)NC1=O
# B11: Compound 51 (peptide)
# peptide: {CH2CO}-[2Nal]ISGRNW[Phg]KWVC-NH2
# modifications: thioether N-12
# SMILES: CC[C@H](C)[C@@H]1NC(=O)[C@H](Cc2ccc3ccccc3c2)NC(=O)CSC[C@@H](C(N)=O)NC(=O)[C@H](C(C)C)NC(=O)[C@H](Cc2c[nH]c3ccccc23)NC(=O)[C@H](CCCCN)NC(=O)[C@H](c2ccccc2)NC(=O)[C@H](Cc2c[nH]c3ccccc23)NC(=O)[C@H](CC(N)=O)NC(=O)[C@H](CCCNC(=N)N)NC(=O)CNC(=O)[C@H](CO)NC1=O
# B12: Compound 56 (peptide)
# peptide: {CH2CO}-[2Nal]ISGKN[2Nal]VKWVC-NH2
# modifications: thioether N-12
# SMILES: CC[C@H](C)[C@@H]1NC(=O)[C@H](Cc2ccc3ccccc3c2)NC(=O)CSC[C@@H](C(N)=O)NC(=O)[C@H](C(C)C)NC(=O)[C@H](Cc2c[nH]c3ccccc23)NC(=O)[C@H](CCCCN)NC(=O)[C@H](C(C)C)NC(=O)[C@H](Cc2ccc3ccccc3c2)NC(=O)[C@H](CC(N)=O)NC(=O)[C@H](CCCCN)NC(=O)CNC(=O)[C@H](CO)NC1=O
# B13: Compound 53 (peptide)
# peptide: {CH2CO}-[2Nal]ISGRNWVKW[Tle]C-NH2
# modifications: thioether N-12
# SMILES: CC[C@H](C)[C@@H]1NC(=O)[C@H](Cc2ccc3ccccc3c2)NC(=O)CSC[C@@H](C(N)=O)NC(=O)[C@H](C(C)(C)C)NC(=O)[C@H](Cc2c[nH]c3ccccc23)NC(=O)[C@H](CCCCN)NC(=O)[C@H](C(C)C)NC(=O)[C@H](Cc2c[nH]c3ccccc23)NC(=O)[C@H](CC(N)=O)NC(=O)[C@H](CCCNC(=N)N)NC(=O)CNC(=O)[C@H](CO)NC1=O
# B14: Compound 59 (peptide)
# peptide: {CH2CO}-[2Nal]ISGHNW[Nle]KWVC-NH2
# modifications: thioether N-12
# SMILES: CCCC[C@@H]1NC(=O)[C@H](Cc2c[nH]c3ccccc23)NC(=O)[C@H](CC(N)=O)NC(=O)[C@H](Cc2c[nH]cn2)NC(=O)CNC(=O)[C@H](CO)NC(=O)[C@H]([C@@H](C)CC)NC(=O)[C@H](Cc2ccc3ccccc3c2)NC(=O)CSC[C@@H](C(N)=O)NC(=O)[C@H](C(C)C)NC(=O)[C@H](Cc2c[nH]c3ccccc23)NC(=O)[C@H](CCCCN)NC1=O
# B15: Compound 57 (peptide)
# peptide: {CH2CO}-[2Nal]ISGKDW[Nle]KWVC-NH2
# modifications: thioether N-12
# SMILES: CCCC[C@@H]1NC(=O)[C@H](Cc2c[nH]c3ccccc23)NC(=O)[C@H](CC(=O)O)NC(=O)[C@H](CCCCN)NC(=O)CNC(=O)[C@H](CO)NC(=O)[C@H]([C@@H](C)CC)NC(=O)[C@H](Cc2ccc3ccccc3c2)NC(=O)CSC[C@@H](C(N)=O)NC(=O)[C@H](C(C)C)NC(=O)[C@H](Cc2c[nH]c3ccccc23)NC(=O)[C@H](CCCCN)NC1=O
# Target: Recombinant-hTSP1 (human, UniProt P07996 19-1170, limits assumed)
# Assay: SPR (Biacore T200), single-cycle kinetics, recombinant hTSP1 immobilised on NTA chip
# Protocol: First, 500 μM NiCl₂ was injected over an NTA-Chip (produced by GE Healthcare, BR100532) at a flow rate of 5 μL/min. for 1 minute to thereby activate NTA groups. Then, an EDC/NHS mixture was injected at a flow rate of 10 μL/min. for 7 minutes to thereby activate the carboxyl groups of dextran. Recombinant-hTSP1 was injected at a flow rate of 10 μL/min. for 7 minutes to immobilize the TSP1 on the substrate surfaces with activated NTA and carboxyl groups. Ethanolamine was injected at a flow rate of 10 μL/min. for 7 minutes to thereby deactivate unreacted, activated carboxyl groups.
# Since Biacore T200 is highly responsive to change in DMSO concentrations, DMSO solutions were sequentially injected at concentrations of 4%, 4.4%, 4.8%, 5.2%, 5.6%, and 6% to correct for DMSO effects.
# The analysis was conducted using the evaluation software provided with Biacore T100 and T200. A DMSO correction curve obtained by solvent correction measurements was applied for the analysis. Kinetics fitting was done on the difference data obtained by subtracting the baseline data from sample measurement data.
# Chain of Recombinant-hTSP1 (P07996 19-1170 limits assumed): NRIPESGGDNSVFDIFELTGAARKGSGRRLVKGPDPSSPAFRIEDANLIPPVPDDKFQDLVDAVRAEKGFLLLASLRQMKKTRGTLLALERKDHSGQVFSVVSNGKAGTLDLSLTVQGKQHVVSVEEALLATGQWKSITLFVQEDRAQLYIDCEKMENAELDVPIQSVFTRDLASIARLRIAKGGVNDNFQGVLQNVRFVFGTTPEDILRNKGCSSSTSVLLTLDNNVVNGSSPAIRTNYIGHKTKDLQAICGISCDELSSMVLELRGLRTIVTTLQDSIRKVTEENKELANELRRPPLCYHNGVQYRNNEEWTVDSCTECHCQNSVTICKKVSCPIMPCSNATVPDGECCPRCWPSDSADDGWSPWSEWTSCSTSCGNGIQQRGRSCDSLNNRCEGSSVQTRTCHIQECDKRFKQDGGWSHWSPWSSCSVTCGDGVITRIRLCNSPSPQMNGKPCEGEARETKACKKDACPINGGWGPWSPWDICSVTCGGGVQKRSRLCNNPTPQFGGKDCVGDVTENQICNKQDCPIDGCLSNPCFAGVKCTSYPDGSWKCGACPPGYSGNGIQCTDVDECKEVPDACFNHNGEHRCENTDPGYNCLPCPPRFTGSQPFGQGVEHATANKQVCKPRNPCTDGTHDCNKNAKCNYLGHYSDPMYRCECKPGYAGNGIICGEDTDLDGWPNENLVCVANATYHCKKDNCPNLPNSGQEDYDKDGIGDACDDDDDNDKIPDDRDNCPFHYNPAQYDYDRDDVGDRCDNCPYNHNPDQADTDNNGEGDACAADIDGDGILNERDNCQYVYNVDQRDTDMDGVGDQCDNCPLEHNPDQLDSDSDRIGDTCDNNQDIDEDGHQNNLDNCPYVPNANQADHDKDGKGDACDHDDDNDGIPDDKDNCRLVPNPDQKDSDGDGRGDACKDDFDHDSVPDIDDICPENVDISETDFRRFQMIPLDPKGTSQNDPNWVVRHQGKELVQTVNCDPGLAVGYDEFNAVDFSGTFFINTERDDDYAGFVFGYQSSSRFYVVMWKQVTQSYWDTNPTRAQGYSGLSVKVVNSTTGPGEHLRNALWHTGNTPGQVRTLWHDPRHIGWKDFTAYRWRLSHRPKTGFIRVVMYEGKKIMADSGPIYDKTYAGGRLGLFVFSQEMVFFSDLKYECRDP
row,Binder,Kd
1,B1,0.55 nM
2,B2,0.12 nM
3,B3,0.44 nM
4,B4,0.13 nM
5,B5,0.58 nM
6,B6,0.37 nM
7,B7,0.38 nM
8,B8,0.096 nM

# Target: T1, Thrombospondin human platelet (Calbiochem, 605225) (human, UniProt P07996 19-1170)
# Assay: cell-based or functional assay
# T1 sequence (P07996 19-1170 limits assumed): as above
row,Binder,Cell adhesion IC50
1,B9,10.3 nM
2,B10,19.5 nM
3,B11,16 nM
4,B12,13.2 nM
5,B13,15.9 nM
6,B14,20.7 nM
7,B15,15.6 nM

# Target: T1, Thrombospondin human platelet …
# Assay: cell-based or functional assay
# Remark: another data set of the same source
row,Binder,Cell adhesion IC50
1,B2,6.1 nM
2,B7,22.2 nM
3,B8,18.7 nM

# Target: T1, Thrombospondin human platelet …
# Assay: cell-based or functional assay
# Remark: another data set of the same source
row,Binder,Cell adhesion IC50
1,B1,29.4 nM
2,B3,32 nM
3,B4,9.2 nM
4,B5,30.3 nM
5,B6,16.4 nM
